From patent US9205136B2, “Human aminoacyl-tRNA synthetase polypeptides useful for the regulation of angiogenesis” (THE SCRIPPS RESEARCH INSTITUTE, priority 2000, dated 2015)

Columns and labels:
MPs = assay: MP chemotaxis assay (ChemoTX microchemotaxis chamber); assay type: cell-based, human; conditions: sample proteins 1 nM, 3 hours
Experimental: Cells for the various cytokine assays described were prepared from acid citrate dextrose-treated blood of normal healthy volunteers. Human PMNs were isolated from the blood by centrifugation (700×g) over Histopaque 1077 and 1119 (Sigma). […] This procedure was repeated twice. Human MPs were isolated by centrifugation on Histopaque 1077 (Sigma). The mononuclear fraction was obtained, washed twice in Hanks' balanced salt solution, resuspended in RPMI-1640 medium (Sigma) containing 10% heat-inactivated fetal bovine serum (Sigma), plated in tissue culture flasks, and incubated in a 6% CO2 incubator at 37° C. for 1-2 hours (Kumagai et al., 1979, J. Immunol. Methods 29:17-25). Nonadherent cells were removed by washing the flasks three times with Hanks' balanced salt solution, and adherent cells were harvested by incubation with calcium-magnesium free phosphate-buffered saline containing 2 mM EDTA for 15 minutes at 4° C., followed by extensive washing.
MP chemotaxis assays were performed in a ChemoTX microchemotaxis chamber (Neuro Probe, Gaithersburg, Md.) containing polycarbonate filters (5 μm pores) with polyvinylpyrrolidone (PVP). MPs were suspended in RPMI-1640 medium containing 1% heat-inactivated fetal bovine serum, and 10^4 cells were added to the upper chamber. Sample proteins (1 nM) were added to the lower compartment of chemotaxis chambers, and the chambers were incubated for 3 hours. After incubation, nonmigrating cells were removed, membranes were fixed in methanol, and migrating cells were visualized with the HEMACOLOR™ stain set (EM Diagnostic Systems, Gibbstown, N.J.). Migrating cells were counted in high-power fields (HPFs). Each determination shown in FIG. 2 represents the average of nine HPF measurements.

[1] = test system: human umbilical vein endothelial cells (HUVECs); assay: HUVEC migration assay (modified Boyden chamber); assay type: cell-based; conditions: 50 nM TyrRS molecule or 0.5 nM VEGF165, 6 hours
Experimental: In contrast, α-chemokines lacking the ELR motif act as angiostatic factors (id.). In order to evaluate the angiogenic activity of TyrRS, which contains the ELR motif, human full-length TyrRS and human mini TyrRS were first examined for their ability to induce endothelial cell migration. Such angiogenic assays were performed using human umbilical vein endothelial cells (HUVECs) (Clonetics, Walkersville, Md.). Cells were maintained in EGM-2® BULLETKIT® medium (Clonetics) in an atmosphere of 6% CO2 at 37° C. according to the supplier's instructions.
Cell migration assays were performed using the modified Boyden chamber (6.5 mm Transwells) with polycarbonate membranes (8.0 μm pore size) (Costar Corp., Cambridge, Mass.) (Masood et al., 1999, Blood 93:1038-44). Wells were coated overnight with 25 μg/mL human fibronectin (Biosource International, Camarillo, Calif.) in PBS and then allowed to air-dry. HUVECs were suspended in Dulbecco's modified Eagle's medium (DMEM) (Gibco-BRL, Gaithersburg, Md.) containing 0.1% BSA (Sigma) and 2×10^5 cells per well were added to the upper chamber. The chemotactic stimulus (50 nM of a given TyrRS molecule or 0.5 nM of human vascular endothelial growth factor-165 (VEGF165) (Biosource International, Camarillo, Calif.)) was placed in the lower chamber, and the cells were allowed to migrate for 6 hours at 37° C. in a 6% CO2 incubator. After incubation, non-migrant cells were removed from the upper face of the Transwell membrane with a cotton swab and migrant cells, those attached to the lower face, were fixed in methanol and visualized with the HEMACOLOR® stain set (EM Diagnostic Systems, Gibbstown, N.J.). Migrating cells were counted in high-power fields (HPFs). HUVECs were suspended in media with the inhibitor for 30 minutes before placement in the chamber. Each determination shown in FIG. 16 represents the average of nine HPF measurements.

B1: mini TyrRS: truncated TyrRS, residues 1-364 of full-length TyrRS, amino-terminal catalytic domain (protein)
chain: MGDAPSPEEKLHLITRNLQEVLGEEKLKEILKERELKIYWGTATTGKPHVAYFVPMSKIADFLKAGCEVTILFADLHAYLDNMKAPWELLELRVSYYENVIKAMLESIGVPLEKLKFIKGTDYQLSKEYTLDVYRLSSVVTQHDSKKAGAEVVKQVEHPLLSGLLYPGLQALDEEYLKVDAQFGGIDQRKIFTFAEKYLPALGYSKRVHLMNPMVPGLTGSKMSSSEEESKIDLLDRKEDVKKKLKKAFCEPGNVENNGVLSFIKHVLFPLKSEFVILRDEKWGGNKTYTAYVDLEKDFAAEVVHPGDLKNSVEVALNKLLDPIREKFNTPALKKLASAAYPDPSKQKPMAKGPAKNSEPEEVILEHHHHHH
modifications: His6 tag; Human mini TyrRS in pET20B
notes: truncated TyrRS, residues 1-364 of full-length TyrRS, amino-terminal catalytic domain
MP chemotaxis (MP migration) (MPs): did not induce MP migration
HUVEC chemotaxis [1]: stimulated induction of HUVEC chemotaxis
